Reference: patent US20100168020A1 (Amgen, published 2010)

T1: myostatin (human, UniProt O14793 267-375)
T1 sequence: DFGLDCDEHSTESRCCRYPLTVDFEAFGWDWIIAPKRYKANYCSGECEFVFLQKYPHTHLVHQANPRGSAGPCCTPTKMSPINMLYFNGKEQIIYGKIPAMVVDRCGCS

T2: activin A (Homo sapiens (Human), UniProt P08476 311-426)
T2 sequence: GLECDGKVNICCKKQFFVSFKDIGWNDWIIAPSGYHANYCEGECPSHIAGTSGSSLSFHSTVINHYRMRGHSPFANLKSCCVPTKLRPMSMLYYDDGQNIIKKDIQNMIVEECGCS


How the values were obtained:
[1] = molecular target: GDF-11 (Homo sapiens (Human)) (UniProt O95390); assay: cell-based or functional assay
myostatin [2] = molecular target: T1, myostatin; assay: cell-based or functional assay
activin A [3] = molecular target: T2, activin A; assay: cell-based or functional assay
[4] = molecular target: GDF-11 (Homo sapiens (Human)) (UniProt O95390); assay: KinExA solution equilibrium, ligand-coated beads, Cy5 anti-human Fc detection
myostatin [5] = molecular target: T1, myostatin; assay: as above
Method: (§1) Solution-based equilibrium-binding assays using KinExA™ technology (Sapidyne Instruments, Inc.) were used to determine the dissociation equilibrium (KD) of ligand binding to ActRIIB-Fc polypeptides. UltraLink Biosupport beads (Pierce) was pre-coated with about 100 μg/ml each of myostatin, GDF-11, and activin A overnight, and then blocked with BSA. 1 pM and 3 pM of ActRIIB-Fc (E28W) (SEQ ID NO: 21) and svActRIIB-Fc (E28W, S44T) (SEQ ID NO: 10) samples were incubated with various concentrations (0.7 fM to 160 pM) of myostatin, activin A, and GDF-11 respectively in sample buffer at room temperature for 8 hours before being run through the ligand-coated beads. The amount of the bead-bound soluble receptor was quantified by fluorescent (Cy5) labeled goat anti-human-Fc antibody at 1 mg/ml in superblock. The binding signal is proportional to the concentration of free soluble receptor at equilibrium with a given myostatin, activin A, or GDF-11 concentration. KD was obtained from the nonlinear regression of the competition curves using a dual-curve one-site homogeneous binding model provided in the KinEx A™ software (Sapidyne Instruments, Inc.).

activin A [6] = molecular target: T2, activin A; assay: as above
Method: as §1

Row | IC50, luciferase activity of C2C12/pMARE-luc reporter cells at 4 nM ligand [1] | IC50, luciferase activity of C2C12/pMARE-luc reporter cells at 4 nM ligand (myostatin [2]) | IC50, luciferase activity of C2C12/pMARE-luc reporter cells at 4 nM ligand (activin A [3]) | Kd [4] | Kd (myostatin [5]) | Kd (activin A [6]) | Binder
1 | 2.4 nM | 0.95 nM | 3.2 nM | 0.1 pM | 0.1 pM | 0.2 pM | ActRIIB-Fc (E28W) (Fc fusion, also called ActRIIB-IgG2Fc (E28W); ActRIIB-IgG Fc (E28W)) ETRWCIYYNANWELERTNQSGLERCEGEQDKRLHCYASWRNSSGTIELVKKGCWLDDFNCYDRQECVATEENPQVYFCCCEGNFCNERFTHLPEAGGPEVTYEPPPTAPTGGGGSVECPPCPAPPVAGPSVFLFPPKPKDTLMISRTPEVTCVVVDVSHEDPEVQFNWYVDGVEVHNAKTKPREEQFNSTFRVVSVLTVVHQDWLNGKEYKCKVSNKGLPAPIEKTISKTKGQPREPQVYTLPPSREEMTKNQVSLTCLVKGFYPSDIAVEWESNGQPENNYKTTPPMLDSDGSFFLYSKLTVDKSRWQQGNVFSCSVMHEALHNHYTQKSLSLSPGK
2 | 2.4 nM | 1.07 nM | 3.6 nM | 0.1 pM | 0.1 pM | 0.1 pM | svActRIIB-Fc (E28W, S44T) (Fc fusion, Made in 293-6E or CHO cells; also called svActRIIB-IgG2Fc (E28W, S44T); svActRIIB-IgG Fc (E28W, S44T)) ETRWCIYYNANWELERTNQTGLERCEGEQDKRLHCYASWRNSSGTIELVKKGCWLDDFNCYDRQECVATEENPQVYFCCCEGNFCNERFTHLPEAGGPEVTYEPPPTAPTGGGGSVECPPCPAPPVAGPSVFLFPPKPKDTLMISRTPEVTCVVVDVSHEDPEVQFNWYVDGVEVHNAKTKPREEQFNSTFRVVSVLTVVHQDWLNGKEYKCKVSNKGLPAPIEKTISKTKGQPREPQVYTLPPSREEMTKNQVSLTCLVKGFYPSDIAVEWESNGQPENNYKTTPPMLDSDGSFFLYSKLTVDKSRWQQGNVFSCSVMHEALHNHYTQKSLSLSPGK
